This assay deals with acceptor complex of syntaxin linked to SNAP-25 (UniProt O16000). Kind of assay: KISMI single-molecule imaging.

By Kd is commonly meant the free concentration of one partner at which half of the binding sites on the other are occupied at equilibrium, for simple one-to-one binding. A high value points to a looser complex.

Chain of UniProt O16000 (O16000 1-265, one chain of several): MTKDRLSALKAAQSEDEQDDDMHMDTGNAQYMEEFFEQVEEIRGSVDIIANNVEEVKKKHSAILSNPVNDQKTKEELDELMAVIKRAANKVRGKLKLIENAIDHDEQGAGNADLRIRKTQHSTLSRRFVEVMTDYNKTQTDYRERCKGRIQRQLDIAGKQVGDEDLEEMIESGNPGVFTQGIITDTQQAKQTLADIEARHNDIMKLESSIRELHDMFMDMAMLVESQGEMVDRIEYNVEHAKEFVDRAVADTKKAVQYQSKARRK

As for “synaptobrevin (from UniProt O02495 1-86)”, the Kd is 1.7 µM.

For the origin of these results see patent US20120208291A1.
